Biological target: TNFR2 (human TNFR2, SEQ ID NO: 1) (human) (UniProt P20333)
Experiment: surface plasmon resonance (Pioneer SensiQ)

Kd: 0.621 nM
Substance: Clone MAB726 (R&D Systems, Inc.) anti-TNFR2 antagonist monoclonal antibody

Source: patent publication US20190330359A1
